Measured values: paper PMC9482650, “Quantitative fragmentomics allow affinity mapping of interactomes” (Nature Communications, 2022)

T1: LNX2_2, Q8N448
T1 sequence (Q8N448 334-432, limits assumed, looked up): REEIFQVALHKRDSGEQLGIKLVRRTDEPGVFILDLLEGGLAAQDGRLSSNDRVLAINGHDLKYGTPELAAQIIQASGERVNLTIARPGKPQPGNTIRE

T2: NHERF3_1, Q5T2W1
T2 sequence (Q5T2W1 4-100, limits assumed, looked up): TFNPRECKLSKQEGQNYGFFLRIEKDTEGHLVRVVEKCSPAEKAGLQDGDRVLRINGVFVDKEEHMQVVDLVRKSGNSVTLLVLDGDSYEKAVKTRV

T3: LRRC7, Q96NW7
T3 sequence (Q96NW7 1440-1537, limits assumed, looked up): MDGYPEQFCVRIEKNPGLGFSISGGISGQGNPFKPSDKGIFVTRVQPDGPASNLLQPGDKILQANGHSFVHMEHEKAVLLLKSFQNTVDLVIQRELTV

T4: TIAM2, Q8IVF5
T4 sequence (Q8IVF5 885-986, limits assumed, looked up): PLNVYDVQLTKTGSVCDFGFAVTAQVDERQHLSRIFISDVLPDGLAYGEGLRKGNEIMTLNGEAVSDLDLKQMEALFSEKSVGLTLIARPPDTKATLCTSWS

T5: SNTG2, Q9NY99
T5 sequence (Q9NY99 68-166, limits assumed, looked up): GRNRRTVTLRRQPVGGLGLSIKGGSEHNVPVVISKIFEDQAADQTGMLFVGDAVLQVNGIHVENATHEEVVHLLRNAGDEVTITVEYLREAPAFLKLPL

T6: DFNB31_2, Q9P202
T6 sequence (Q9P202 274-371, limits assumed, looked up): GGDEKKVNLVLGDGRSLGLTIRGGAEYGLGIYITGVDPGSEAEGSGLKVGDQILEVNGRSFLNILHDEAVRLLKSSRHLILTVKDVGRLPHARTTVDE

T7: APBA2_1, Q99767
T7 sequence (Q99767 563-664, limits assumed, looked up): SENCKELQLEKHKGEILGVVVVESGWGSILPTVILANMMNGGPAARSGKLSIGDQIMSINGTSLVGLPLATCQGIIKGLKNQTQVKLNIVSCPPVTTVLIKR

T8: DFNB31_1, Q9P202
T8 sequence (Q9P202 135-233, limits assumed, looked up): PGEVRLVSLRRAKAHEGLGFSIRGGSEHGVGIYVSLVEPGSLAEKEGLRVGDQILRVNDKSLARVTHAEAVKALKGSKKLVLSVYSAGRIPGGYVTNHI

T9: ARHGAP21, Q5T5U3
T9 sequence (Q5T5U3 45-169, limits assumed, looked up): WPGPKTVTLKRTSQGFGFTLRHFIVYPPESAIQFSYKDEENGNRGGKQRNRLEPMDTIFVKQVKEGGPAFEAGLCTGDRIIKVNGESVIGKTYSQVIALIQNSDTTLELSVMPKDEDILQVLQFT


Key:
Experiment in all cases: holdup assay
Parameters in all cases: key: below the threshold = too weak to quantify, mostly under pKd 3.1 to 4
Conditions in all cases: plain residues with an end cap or a label only (N-terminal biotin on a linker: ttds)
Inadl_3, Q8NI35 = biological target: Inadl_3, Q8NI35
MAGI3_2, Q5TCQ9 = biological target: MAGI3_2, Q5TCQ9
GRIP2_4, Q9C0E4 = biological target: GRIP2_4, Q9C0E4
LNX2_2, Q8N448 = biological target: T1, LNX2_2, Q8N448
HTRA2, O43464 = biological target: HTRA2, O43464
GRIP2_3, Q9C0E4 = biological target: GRIP2_3, Q9C0E4
HTRA1, Q92743 = biological target: HTRA1, Q92743
NHERF3_1, Q5T2W1 = biological target: T2, NHERF3_1, Q5T2W1
LRRC7, Q96NW7 = biological target: T3, LRRC7, Q96NW7
GRIP2_7, Q9C0E4 = biological target: GRIP2_7, Q9C0E4
TIAM2, Q8IVF5 = biological target: T4, TIAM2, Q8IVF5
LNX1_3, Q8TBB1 = biological target: LNX1_3, Q8TBB1
IL16_1, Q14005 = biological target: IL16_1, Q14005
TJP1_2, Q07157 = biological target: TJP1_2, Q07157
Inadl_8, Q8NI35 = biological target: Inadl_8, Q8NI35
SNTG2, Q9NY99 = biological target: T5, SNTG2, Q9NY99
IL16_4, Q14005 = biological target: IL16_4, Q14005
PTPN3, P26045 = biological target: PTPN3, P26045
MAST2, Q6P0Q8 = biological target: MAST2, Q6P0Q8
DFNB31_2, Q9P202 = biological target: T6, DFNB31_2, Q9P202
GIPC2, Q8TF65 = biological target: GIPC2, Q8TF65
MAGI2_6, Q86UL8 = biological target: MAGI2_6, Q86UL8
GRID2IP_1, A4D2P6 = biological target: GRID2IP_1, A4D2P6
APBA2_1, Q99767 = biological target: T7, APBA2_1, Q99767
PDZRN4_1, Q6ZMN7 = biological target: PDZRN4_1, Q6ZMN7
Inadl_4, Q8NI35 = biological target: Inadl_4, Q8NI35
DFNB31_1, Q9P202 = biological target: T8, DFNB31_1, Q9P202
ARHGAP21, Q5T5U3 = biological target: T9, ARHGAP21, Q5T5U3
DLG1_2, Q12959 = biological target: DLG1_2, Q12959
Sequence of DLG1_2, Q12959 (Q12959 314-412): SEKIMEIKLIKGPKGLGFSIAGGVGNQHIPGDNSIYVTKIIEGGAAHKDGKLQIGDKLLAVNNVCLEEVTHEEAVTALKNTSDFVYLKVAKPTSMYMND

Sequence of MAST2, Q6P0Q8 (Q6P0Q8 1099-1202): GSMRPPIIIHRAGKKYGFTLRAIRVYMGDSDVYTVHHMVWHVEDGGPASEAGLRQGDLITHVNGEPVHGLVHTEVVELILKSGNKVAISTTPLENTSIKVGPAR
Sequence of GRIP2_3, Q9C0E4 (Q9C0E4 238-339): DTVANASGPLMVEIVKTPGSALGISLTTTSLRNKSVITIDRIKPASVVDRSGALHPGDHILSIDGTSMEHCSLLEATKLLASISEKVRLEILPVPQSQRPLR
Sequence of HTRA2, O43464 (O43464 355-458): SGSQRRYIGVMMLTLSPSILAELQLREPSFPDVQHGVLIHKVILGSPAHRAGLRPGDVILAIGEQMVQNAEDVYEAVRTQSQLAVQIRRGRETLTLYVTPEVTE
Sequence of GRID2IP_1, A4D2P6 (A4D2P6 1-87): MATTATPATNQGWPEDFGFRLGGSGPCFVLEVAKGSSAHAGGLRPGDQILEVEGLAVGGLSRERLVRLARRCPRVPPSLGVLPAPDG
Sequence of GRIP2_7, Q9C0E4 (Q9C0E4 934-1023): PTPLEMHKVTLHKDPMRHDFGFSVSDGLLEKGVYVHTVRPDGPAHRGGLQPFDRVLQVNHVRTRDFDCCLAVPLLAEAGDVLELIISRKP
Sequence of IL16_1, Q14005 (Q14005 210-306): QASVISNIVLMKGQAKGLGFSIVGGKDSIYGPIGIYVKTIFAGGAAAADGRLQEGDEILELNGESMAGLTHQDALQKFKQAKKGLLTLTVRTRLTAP
Sequence of LNX1_3, Q8TBB1 (Q8TBB1 500-596): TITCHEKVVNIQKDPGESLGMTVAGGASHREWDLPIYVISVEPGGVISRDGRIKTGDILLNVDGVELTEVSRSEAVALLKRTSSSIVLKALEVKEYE
Sequence of MAGI2_6, Q86UL8 (Q86UL8 1141-1229): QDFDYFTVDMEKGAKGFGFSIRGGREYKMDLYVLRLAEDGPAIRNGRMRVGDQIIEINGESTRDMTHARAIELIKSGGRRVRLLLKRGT
Sequence of Inadl_4, Q8NI35 (Q8NI35 547-651): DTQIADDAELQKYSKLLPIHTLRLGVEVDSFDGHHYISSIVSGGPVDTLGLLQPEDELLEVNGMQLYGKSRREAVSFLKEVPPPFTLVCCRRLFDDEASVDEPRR
Sequence of Inadl_8, Q8NI35 (Q8NI35 1425-1530): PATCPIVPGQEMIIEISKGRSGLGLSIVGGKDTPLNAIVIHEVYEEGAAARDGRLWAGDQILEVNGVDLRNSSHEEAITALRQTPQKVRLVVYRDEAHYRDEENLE
Sequence of MAGI3_2, Q5TCQ9 (Q5TCQ9 398-503): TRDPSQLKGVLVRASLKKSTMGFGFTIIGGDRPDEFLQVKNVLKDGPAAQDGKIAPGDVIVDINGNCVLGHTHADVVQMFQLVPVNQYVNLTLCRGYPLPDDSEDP
Sequence of GIPC2, Q8TF65 (Q8TF65 112-203): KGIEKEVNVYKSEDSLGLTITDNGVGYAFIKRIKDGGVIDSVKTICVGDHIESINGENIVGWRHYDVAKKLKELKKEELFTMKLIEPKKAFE
Sequence of HTRA1, Q92743 (Q92743 360-477): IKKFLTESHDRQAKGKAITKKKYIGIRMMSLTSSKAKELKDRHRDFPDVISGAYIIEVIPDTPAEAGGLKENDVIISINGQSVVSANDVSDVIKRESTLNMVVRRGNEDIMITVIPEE
Sequence of GRIP2_4, Q9C0E4 (Q9C0E4 446-548): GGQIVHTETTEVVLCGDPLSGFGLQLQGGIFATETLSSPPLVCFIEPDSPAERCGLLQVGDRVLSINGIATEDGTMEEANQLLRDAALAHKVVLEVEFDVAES
Sequence of Inadl_3, Q8NI35 (Q8NI35 359-469): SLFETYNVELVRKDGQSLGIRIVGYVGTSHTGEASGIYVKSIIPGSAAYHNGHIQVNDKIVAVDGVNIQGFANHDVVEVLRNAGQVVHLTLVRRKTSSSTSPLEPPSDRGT
Sequence of PTPN3, P26045 (P26045 505-587): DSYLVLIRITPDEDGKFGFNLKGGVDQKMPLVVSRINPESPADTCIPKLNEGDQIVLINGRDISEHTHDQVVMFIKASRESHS
Sequence of PDZRN4_1, Q6ZMN7 (Q6ZMN7 213-318): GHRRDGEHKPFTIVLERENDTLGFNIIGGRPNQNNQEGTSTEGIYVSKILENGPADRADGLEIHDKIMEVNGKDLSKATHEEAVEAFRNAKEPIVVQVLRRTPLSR
Sequence of TJP1_2, Q07157 (Q07157 181-274): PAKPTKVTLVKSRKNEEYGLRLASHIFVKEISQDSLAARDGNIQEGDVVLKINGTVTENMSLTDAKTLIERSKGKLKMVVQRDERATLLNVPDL
Sequence of IL16_4, Q14005 (Q14005 1229-1329): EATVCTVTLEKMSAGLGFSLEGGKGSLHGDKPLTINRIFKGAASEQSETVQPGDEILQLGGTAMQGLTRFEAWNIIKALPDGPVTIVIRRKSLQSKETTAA

Binder | pKd (Inadl_3, Q8NI35) | pKd (MAGI3_2, Q5TCQ9) | pKd (GRIP2_4, Q9C0E4) | pKd (LNX2_2, Q8N448) | pKd (HTRA2, O43464) | pKd (GRIP2_3, Q9C0E4) | pKd (HTRA1, Q92743) | pKd (NHERF3_1, Q5T2W1) | pKd (LRRC7, Q96NW7) | pKd (GRIP2_7, Q9C0E4) | pKd (TIAM2, Q8IVF5) | pKd (LNX1_3, Q8TBB1) | pKd (IL16_1, Q14005) | pKd (TJP1_2, Q07157) | pKd (Inadl_8, Q8NI35) | pKd (SNTG2, Q9NY99) | pKd (IL16_4, Q14005) | pKd (PTPN3, P26045) | pKd (MAST2, Q6P0Q8) | pKd (DFNB31_2, Q9P202) | further results
TVASEKESVM [SLC1A5, Q15758] | below the threshold | below the threshold | below the threshold | below the threshold | below the threshold | below the threshold | 3.86 | 4.42 | below the threshold | below the threshold | below the threshold | below the threshold | below the threshold | below the threshold | below the threshold | 3.75 | below the threshold | 4.94 | 4.61 | below the threshold | pKd (GIPC2, Q8TF65): 3.54; pKd (MAGI2_6, Q86UL8): below the threshold; pKd (GRID2IP_1, A4D2P6): below the threshold; pKd (APBA2_1, Q99767): below the threshold; pKd (PDZRN4_1, Q6ZMN7): 3.87; pKd (Inadl_4, Q8NI35): below the threshold; pKd (DFNB31_1, Q9P202): 3.65; pKd (ARHGAP21, Q5T5U3): below the threshold; pKd (DLG1_2, Q12959): below the threshold
PKTPPTDTSV [KIR3DL3, Q8N743] | below the threshold | 3.71 | below the threshold | below the threshold | below the threshold | below the threshold | below the threshold | below the threshold | below the threshold | below the threshold | below the threshold | below the threshold | below the threshold | below the threshold | below the threshold | 3.73 | below the threshold | 4.48 | 4.7 | below the threshold | pKd (GIPC2, Q8TF65): below the threshold; pKd (MAGI2_6, Q86UL8): 3.97; pKd (GRID2IP_1, A4D2P6): below the threshold; pKd (APBA2_1, Q99767): below the threshold; pKd (PDZRN4_1, Q6ZMN7): below the threshold; pKd (Inadl_4, Q8NI35): below the threshold; pKd (DFNB31_1, Q9P202): 3.69; pKd (ARHGAP21, Q5T5U3): 3.61; pKd (DLG1_2, Q12959): 3.75
VLRLQSETSV [VANGL1, Q8TAA9] | below the threshold | 5.14 | below the threshold | 4.15 | below the threshold | below the threshold | below the threshold | 3.98 | below the threshold | below the threshold | below the threshold | below the threshold | 3.7 | below the threshold | below the threshold | 4.53 | below the threshold | 4.97 | 5.56 | below the threshold | pKd (GIPC2, Q8TF65): 3.75; pKd (MAGI2_6, Q86UL8): 4.05; pKd (GRID2IP_1, A4D2P6): below the threshold; pKd (APBA2_1, Q99767): below the threshold; pKd (PDZRN4_1, Q6ZMN7): 4.46; pKd (Inadl_4, Q8NI35): below the threshold; pKd (DFNB31_1, Q9P202): 4.03; pKd (ARHGAP21, Q5T5U3): below the threshold; pKd (DLG1_2, Q12959): 4.86
GQDSREETQL [KCNT2, Q6UVM3] | below the threshold | 3.91 | below the threshold | below the threshold | below the threshold | below the threshold | below the threshold | 5.47 | below the threshold | below the threshold | below the threshold | below the threshold | below the threshold | below the threshold | below the threshold | 4.39 | below the threshold | 4.9 | 5.91 | below the threshold | pKd (GIPC2, Q8TF65): 3.79; pKd (MAGI2_6, Q86UL8): below the threshold; pKd (GRID2IP_1, A4D2P6): below the threshold; pKd (APBA2_1, Q99767): below the threshold; pKd (PDZRN4_1, Q6ZMN7): 4.97; pKd (Inadl_4, Q8NI35): below the threshold; pKd (DFNB31_1, Q9P202): 3.82; pKd (ARHGAP21, Q5T5U3): 3.68; pKd (DLG1_2, Q12959): 4.2
QSARYRDTEL [TJP2, Q9UDY2] | below the threshold | below the threshold | below the threshold | below the threshold | below the threshold | below the threshold | below the threshold | 4.33 | 3.86 | 3.49 | below the threshold | below the threshold | below the threshold | below the threshold | below the threshold | 3.84 | below the threshold | 4.98 | 5.7 | below the threshold | pKd (GIPC2, Q8TF65): below the threshold; pKd (MAGI2_6, Q86UL8): 4.36; pKd (GRID2IP_1, A4D2P6): 3.59; pKd (APBA2_1, Q99767): below the threshold; pKd (PDZRN4_1, Q6ZMN7): 4.41; pKd (Inadl_4, Q8NI35): below the threshold; pKd (DFNB31_1, Q9P202): 3.57; pKd (ARHGAP21, Q5T5U3): 4.48; pKd (DLG1_2, Q12959): 3.77
